In patent US20230087785A1, “Leucine-Rich Repeat Kinase 2 Allosteric Modulators” (VIB VZW, priority 2020, published 2023):

B1: Nb23: LRRK2-specific Nanobody, SEQ ID NO: 3 (protein)
VHH: MAQVQLVESGGGLVQAGGSLRLSCAASGRTFSRYTMGWFRQAPGKDREFVARITTSGAVTTYADSAKGRFTISRDNAKNTVYLQMNTLKPEDTAVYYCAAGQGQLSSQSRFVDYWGQGTQVTVSS
modifications: Nanobody CA13612
B2: Nb42: LRRK2-specific Nanobody, SEQ ID NO: 6 (protein)
VHH: MAQVQLVESGGGLVQAGGSLRLSCAASGDVNYAVGWFRQAPRKEREFVAAINWRGDNTDYTDSVKGRFTISRDNAKNTVYLQMNSLKPEDTAVYYCAAKSAPYWYSDIAPDYWGQGTQVTVSS
modifications: Nanobody CA14259
B3: Nb22: LRRK2-specific Nanobody, SEQ ID NO: 9 (protein)
VHH: MAQVQLVESGGGLVQAGGSLRLSCAASGRTFSSYTMGWFRQAPGKEREFVAAIRWSGGSTYYADSVKGRFTISRDNAKNTVYLQMNSLKPEDTAVYYCAASDRGGFIATSGGWMDYWGKGTQVTVSS
modifications: Nanobody CA13611
B4: Nb1: LRRK2-specific Nanobody, SEQ ID NO: 1 (protein)
VHH: MAQVQLVESGGGLVQAGGSLRLSCVASGRIFSGNAMGWYRQAPGRQRELVAGITNGGYTNYRQFVKGRFTISRDNAKRTVYLQMNSLKPEDTAVYYCNALDREARQVDYWGQGTQVTVSS
modifications: Nanobody CA12610
B5: Nb6: LRRK2-specific Nanobody, SEQ ID NO: 2 (protein)
VHH: MAQVQLVESGGGLVQAGGSLRLSCAASGSIFSPTAMGWYRQAPGKERELVAGITSGGYTNYRNFARGRFTISRDNAKKTVYLQMNSLNPEDTAVYYCNTLTISWSWGQGTQVTVSS
modifications: Nanobody CA12618

molecular target: T1, endogenous LRRK2 (Mus musculus, UniProt Q5S006); assay: Colocalization of GFP-Nbs with endogenous LRRK2 on zymosan-containing phagosomes in RAW264.7 cells; type: cell-based; conditions: RAW264.7 cells transfected with GFP-Nbs, zymosan 30 mins, fixed cells
T1 construct: endogenous in cells; host or cells: RAW264.7
T1 sequence (Q5S006 whole entry): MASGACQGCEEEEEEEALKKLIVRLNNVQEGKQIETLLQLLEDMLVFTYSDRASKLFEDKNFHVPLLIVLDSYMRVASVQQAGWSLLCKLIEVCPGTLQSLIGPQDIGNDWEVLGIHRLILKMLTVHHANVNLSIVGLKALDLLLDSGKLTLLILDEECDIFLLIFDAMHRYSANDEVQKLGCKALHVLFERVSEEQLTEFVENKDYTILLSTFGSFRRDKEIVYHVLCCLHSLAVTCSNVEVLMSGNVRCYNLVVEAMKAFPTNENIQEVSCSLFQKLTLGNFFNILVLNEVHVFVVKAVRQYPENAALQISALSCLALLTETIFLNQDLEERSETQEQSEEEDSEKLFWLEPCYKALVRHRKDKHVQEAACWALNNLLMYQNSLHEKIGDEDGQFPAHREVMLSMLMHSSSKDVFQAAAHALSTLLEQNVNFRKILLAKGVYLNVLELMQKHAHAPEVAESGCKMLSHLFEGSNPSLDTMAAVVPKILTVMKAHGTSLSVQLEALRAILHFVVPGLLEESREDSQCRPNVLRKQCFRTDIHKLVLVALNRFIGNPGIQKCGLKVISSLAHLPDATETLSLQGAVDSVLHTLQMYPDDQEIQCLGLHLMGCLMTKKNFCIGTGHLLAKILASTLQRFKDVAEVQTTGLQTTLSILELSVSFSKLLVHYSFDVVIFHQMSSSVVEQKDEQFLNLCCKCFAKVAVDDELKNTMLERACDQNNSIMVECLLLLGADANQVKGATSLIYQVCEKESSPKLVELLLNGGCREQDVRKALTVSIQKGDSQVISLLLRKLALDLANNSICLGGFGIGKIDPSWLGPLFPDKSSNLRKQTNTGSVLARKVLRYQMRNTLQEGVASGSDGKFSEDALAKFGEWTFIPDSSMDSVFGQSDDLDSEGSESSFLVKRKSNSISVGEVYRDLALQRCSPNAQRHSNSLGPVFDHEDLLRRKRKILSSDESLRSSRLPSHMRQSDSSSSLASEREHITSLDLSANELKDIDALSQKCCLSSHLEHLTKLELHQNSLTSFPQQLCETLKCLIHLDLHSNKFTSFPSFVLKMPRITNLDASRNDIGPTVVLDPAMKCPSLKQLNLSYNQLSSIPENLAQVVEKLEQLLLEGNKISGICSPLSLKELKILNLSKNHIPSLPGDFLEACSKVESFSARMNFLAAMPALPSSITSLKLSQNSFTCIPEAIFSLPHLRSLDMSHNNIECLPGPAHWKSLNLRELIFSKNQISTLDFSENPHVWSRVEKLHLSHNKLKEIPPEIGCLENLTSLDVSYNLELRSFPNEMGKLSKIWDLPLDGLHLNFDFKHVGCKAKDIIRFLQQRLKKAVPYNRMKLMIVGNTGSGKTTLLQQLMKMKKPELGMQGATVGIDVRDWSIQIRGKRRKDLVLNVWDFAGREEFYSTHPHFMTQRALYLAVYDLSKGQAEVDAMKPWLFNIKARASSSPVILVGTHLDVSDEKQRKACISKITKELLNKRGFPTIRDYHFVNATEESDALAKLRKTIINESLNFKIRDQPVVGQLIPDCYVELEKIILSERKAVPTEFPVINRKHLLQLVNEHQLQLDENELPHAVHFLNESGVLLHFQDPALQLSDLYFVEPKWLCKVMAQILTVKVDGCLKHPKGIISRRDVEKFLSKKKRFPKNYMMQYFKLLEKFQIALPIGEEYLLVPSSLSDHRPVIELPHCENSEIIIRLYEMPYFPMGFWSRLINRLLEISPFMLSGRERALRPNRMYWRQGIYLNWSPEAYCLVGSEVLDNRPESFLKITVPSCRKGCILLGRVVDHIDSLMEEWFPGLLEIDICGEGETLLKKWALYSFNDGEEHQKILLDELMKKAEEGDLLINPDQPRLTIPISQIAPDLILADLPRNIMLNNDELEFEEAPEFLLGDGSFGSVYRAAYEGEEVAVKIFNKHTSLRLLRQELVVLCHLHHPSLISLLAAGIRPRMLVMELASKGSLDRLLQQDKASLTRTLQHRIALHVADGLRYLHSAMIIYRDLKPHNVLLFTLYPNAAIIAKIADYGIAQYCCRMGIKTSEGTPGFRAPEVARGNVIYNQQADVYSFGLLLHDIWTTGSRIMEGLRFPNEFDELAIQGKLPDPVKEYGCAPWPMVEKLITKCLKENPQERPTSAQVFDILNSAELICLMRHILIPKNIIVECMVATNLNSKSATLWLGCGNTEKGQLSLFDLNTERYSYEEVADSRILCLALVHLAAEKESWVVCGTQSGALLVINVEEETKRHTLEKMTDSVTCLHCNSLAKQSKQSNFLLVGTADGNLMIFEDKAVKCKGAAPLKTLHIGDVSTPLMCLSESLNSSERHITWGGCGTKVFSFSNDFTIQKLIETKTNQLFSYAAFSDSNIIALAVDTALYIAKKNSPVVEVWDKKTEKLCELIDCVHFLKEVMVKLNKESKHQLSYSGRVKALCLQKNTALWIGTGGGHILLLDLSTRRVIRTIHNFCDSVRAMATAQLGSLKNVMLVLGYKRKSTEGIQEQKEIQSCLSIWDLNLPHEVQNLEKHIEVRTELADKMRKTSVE

| Molecule | colocalization with endogenous LRRK2 on phagosomes |
| --- | --- |
| B1 | clearly colocalized with LRRK2 on zymosan-containing phagosomes |
| B2 | did not colocalize with endogenous LRRK2 |
| B3 | clearly colocalized with LRRK2 on zymosan-containing phagosomes |
| B4 | LRRK2 recruitment to phagosomes was slightly detectable |
| B5 | LRRK2 recruitment to phagosomes was slightly detectable |

molecular target: T2, LRRK2 (Homo sapiens, UniProt Q5S007, M2397T/R50H); assay: Determination of kinase inhibition mechanism (Michaelis-Menten curves at varying ATP); type: biochemical; conditions: Lineweaver-Burk plot and global fit
T2 construct: Full-length human LRRK2 was expressed and purified based on previously developed protocols; SF tag (FLAG-tag + Twin-Strep-tag); made in house; host or cells: HEK 293T
Method: FIGS. 11A-11C, Dose-response curves (upper panels) for the inhibition of the in vitro LRRK2 kinase activity by the group1 Nbs: Nb1 (FIG. 11A), Nb6 (FIG. 11B) and Nb23 (FIG. 11C), where the Nb concentration was varied from 200 or 150 μM to 0.006 μM in a two-fold serial dilution. The two lower panels show the Michaelis-Menten curves obtained for LRRK2 at varying concentrations of ATP and a fixed (sub-saturating) concentration of peptide substrate (AQT0615), and at varying concentrations of Nb1 (FIG. 11A), Nb6 (FIG. 11B) and Nb23 (FIG. 11C), and the corresponding linearizations according to the Lineweaver-Burk method (double-reciprocal plot). The Nb concentrations used are indicated below the plots. Each datapoint reflects the average (±SD) of three independent measurements.
To further confirm this, we set out to determine the mechanism of inhibition (competitive vs. uncompetitive vs. mixed/non-competitive) of these three Nbs vis-h-vis ATP as substrate, using our peptide phosphorylation assays as output. To this end, full Michaelis-Menten curves were obtained at a fixed (probably sub-saturating) concentration of peptide substrate (10 μM) and varying concentrations of ATP (FIGS. 11A-11C). […] This confirms that these Nbs are not competing with ATP for binding and that they inhibit the reaction by binding on an allosteric site, which is in agreement with the ELISA and CL-MS epitope mapping data. […] For CA12618, fitting on the same model yields a Kic^app of 5±1 μM with an α-value of 1.6±0.4, corresponding a Kic^app of 5 μM and a Kic^app of […]. For the kinase domain-binding CA13612, the linearized curves intersect closer to the Y-axis indicating a mechanism which is more ATP-competitive like. […] Fitting on a mixed inhibition model for CA13612 gives a Kic^app of 9±1 μM with an α-value of 7.5±1.9, corresponding a Kic^app of 9 μM and a Kic^app of 66 μM.
To determine the mechanism of inhibition and apparent Ki (Ki^app) values of CA12610, CA12618, CA13612 the PhosphoSens® Protein Kinase Assay (AssayQuant Technologies Inc.) in combination with the AQT0615 peptide substrate was used. Full Michaelis-Menten curves (relative velocity versus [ATP]) in presence of different Nb concentrations were collected at 30° C. in a buffer consisting of 50 mM HEPES pH 7.5, 0.1% Brij-35, 50 mM NaCl, 10 mM MgCl2 and […], using a fixed concentration of AQT0615 (10 μM) and varying concentrations of ATP. The LRRK2 concentration was chosen such that initial rates (linear fluorescence versus time curves) were obtained, and LRRK2, ATP and the Nbs were preincubated at 4° C. for 30 min prior to starting the reaction by adding the peptide substrate. The Michaelis-Menten curves for the different Nb concentrations were globally fit on a mixed-inhibition model using GraphPad Prism, according to the equation:
(with Kic^app=Ki^app and Ki^app−a·Ki^app)
Additionally, as a diagnostic tool, Michaelis-Menten curves were linearized using the Lineweaver-Burk (double reciprocal) plot.

T2 sequence (Q5S007 whole entry R50H/M2397T): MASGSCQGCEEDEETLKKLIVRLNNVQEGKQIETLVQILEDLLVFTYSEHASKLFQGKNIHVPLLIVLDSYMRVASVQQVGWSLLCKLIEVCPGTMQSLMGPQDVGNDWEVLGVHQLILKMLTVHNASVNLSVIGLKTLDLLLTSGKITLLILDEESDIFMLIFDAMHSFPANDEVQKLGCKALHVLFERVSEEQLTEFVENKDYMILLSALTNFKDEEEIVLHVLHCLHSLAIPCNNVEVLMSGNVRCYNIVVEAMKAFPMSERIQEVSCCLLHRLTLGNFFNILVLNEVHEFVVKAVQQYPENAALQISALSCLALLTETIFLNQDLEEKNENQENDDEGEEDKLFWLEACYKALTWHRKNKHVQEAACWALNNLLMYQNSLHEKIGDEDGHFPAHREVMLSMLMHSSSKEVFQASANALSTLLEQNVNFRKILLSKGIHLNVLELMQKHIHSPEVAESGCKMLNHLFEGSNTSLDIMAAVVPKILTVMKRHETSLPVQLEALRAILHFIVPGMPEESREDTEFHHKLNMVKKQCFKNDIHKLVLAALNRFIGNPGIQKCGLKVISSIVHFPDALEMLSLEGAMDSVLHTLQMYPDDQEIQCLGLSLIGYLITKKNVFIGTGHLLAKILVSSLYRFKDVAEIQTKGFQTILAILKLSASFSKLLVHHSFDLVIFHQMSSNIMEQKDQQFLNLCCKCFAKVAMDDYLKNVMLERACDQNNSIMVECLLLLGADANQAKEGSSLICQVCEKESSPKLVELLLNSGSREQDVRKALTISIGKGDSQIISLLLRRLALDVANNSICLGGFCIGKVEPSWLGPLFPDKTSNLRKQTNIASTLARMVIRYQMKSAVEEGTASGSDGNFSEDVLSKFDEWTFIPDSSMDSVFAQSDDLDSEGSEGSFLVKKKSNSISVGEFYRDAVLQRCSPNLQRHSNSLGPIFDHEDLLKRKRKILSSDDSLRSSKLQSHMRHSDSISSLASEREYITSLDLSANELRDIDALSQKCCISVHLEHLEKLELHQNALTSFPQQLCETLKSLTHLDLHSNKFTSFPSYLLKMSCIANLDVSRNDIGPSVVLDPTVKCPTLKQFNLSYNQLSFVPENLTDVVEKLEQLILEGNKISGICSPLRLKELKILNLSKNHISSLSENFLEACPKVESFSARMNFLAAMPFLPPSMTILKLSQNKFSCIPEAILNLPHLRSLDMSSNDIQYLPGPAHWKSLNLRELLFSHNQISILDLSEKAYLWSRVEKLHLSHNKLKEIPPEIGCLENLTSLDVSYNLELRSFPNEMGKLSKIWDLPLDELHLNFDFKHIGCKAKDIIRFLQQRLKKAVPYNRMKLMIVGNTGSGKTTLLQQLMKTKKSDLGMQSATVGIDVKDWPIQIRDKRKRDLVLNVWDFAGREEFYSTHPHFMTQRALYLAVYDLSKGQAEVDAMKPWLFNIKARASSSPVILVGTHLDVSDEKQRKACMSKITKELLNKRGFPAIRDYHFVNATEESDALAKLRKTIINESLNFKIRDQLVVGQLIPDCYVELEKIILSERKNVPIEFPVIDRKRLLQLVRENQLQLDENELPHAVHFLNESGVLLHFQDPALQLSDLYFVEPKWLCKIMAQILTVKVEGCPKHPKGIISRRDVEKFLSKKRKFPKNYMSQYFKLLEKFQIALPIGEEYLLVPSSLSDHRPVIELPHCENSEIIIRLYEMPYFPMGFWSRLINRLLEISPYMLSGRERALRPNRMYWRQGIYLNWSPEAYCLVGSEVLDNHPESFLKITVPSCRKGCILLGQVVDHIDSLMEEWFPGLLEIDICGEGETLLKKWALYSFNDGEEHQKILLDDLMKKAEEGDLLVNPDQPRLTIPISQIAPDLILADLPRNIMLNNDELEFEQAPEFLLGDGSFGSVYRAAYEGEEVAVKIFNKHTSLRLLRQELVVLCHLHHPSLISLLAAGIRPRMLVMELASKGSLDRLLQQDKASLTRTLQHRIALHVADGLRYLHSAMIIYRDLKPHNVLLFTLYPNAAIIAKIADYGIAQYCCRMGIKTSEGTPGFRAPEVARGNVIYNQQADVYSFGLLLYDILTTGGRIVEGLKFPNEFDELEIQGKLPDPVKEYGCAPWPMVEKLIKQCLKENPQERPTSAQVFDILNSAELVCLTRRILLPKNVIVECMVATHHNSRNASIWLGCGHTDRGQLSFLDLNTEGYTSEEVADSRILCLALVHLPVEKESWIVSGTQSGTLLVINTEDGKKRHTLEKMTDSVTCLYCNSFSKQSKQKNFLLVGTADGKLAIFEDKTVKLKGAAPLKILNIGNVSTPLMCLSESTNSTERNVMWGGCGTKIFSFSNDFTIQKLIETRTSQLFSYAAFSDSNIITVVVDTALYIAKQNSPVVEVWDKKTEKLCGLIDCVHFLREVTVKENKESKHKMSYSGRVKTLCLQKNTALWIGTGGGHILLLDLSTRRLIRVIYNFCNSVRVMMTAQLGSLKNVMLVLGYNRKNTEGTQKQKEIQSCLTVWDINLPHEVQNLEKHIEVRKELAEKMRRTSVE

| mechanism of inhibition vis-a-vis ATP as substrate | Molecule |
| --- | --- |
| mixed-inhibition mechanism | B1 |
| mixed-type inhibition | B4 |
| mixed-type inhibition | B5 |

same assay, conditions: global fit, mixed inhibition model; 10 μM AQT0615, varying ATP

| α-value | Molecule |
| --- | --- |
| 7.5±1.9 | B1 |
| 1.8±0.5 | B4 |
| 1.6±0.4 | B5 |
